Data on one molecule can be found in patent publication US20220195071A1 (TORQUE THERAPEUTICS, published 2022).

The target in the experiment is T1, mouse CD8 (mouse, UniProt P01731 28-247; P10300 22-213).
T1 construct: whole, on cells
Nature of the experiment: flow cytometry of blood 1 hr after i.v. injection (2 µg/mouse); kappa+ IL-15+ cells.

T1 sequence (P01731 28-247, chain 1 of 2): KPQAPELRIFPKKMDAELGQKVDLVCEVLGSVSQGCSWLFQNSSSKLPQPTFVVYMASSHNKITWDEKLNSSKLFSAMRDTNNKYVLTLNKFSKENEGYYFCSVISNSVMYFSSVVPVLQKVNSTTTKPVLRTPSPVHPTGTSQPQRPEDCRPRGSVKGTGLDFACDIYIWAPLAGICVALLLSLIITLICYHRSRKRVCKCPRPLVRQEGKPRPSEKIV
T1 sequence (P10300 22-213, chain 2 of 2): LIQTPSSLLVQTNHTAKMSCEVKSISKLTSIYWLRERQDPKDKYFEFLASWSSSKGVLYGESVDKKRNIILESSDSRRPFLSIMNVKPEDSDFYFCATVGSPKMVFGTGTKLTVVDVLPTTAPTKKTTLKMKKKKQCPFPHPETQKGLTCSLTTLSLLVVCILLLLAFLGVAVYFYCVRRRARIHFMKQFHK

B1: chY169Fab-M1scFv-IL15/sushi (bispecific antibody)
chain 1: EVKLQESGGGLVQPGRSLKLSCAASGFNFNDYWMGWVRQAPGKGLEWIGEINKDSSTINYTPSLKDKFTISRDNAQNTLYLQMSKLGSEDTAIYYCARARGMMVLIIPHYFDYWGQGVMVTVSSASTKGPSVFPLAPSSKSTSGGTAALGCLVKDYFPEPVTVSWNSGALTSGVHTFPAVLQSSGLYSLSSVVTVPSSSLGTQTYICNVNHKPSNTKVDKKVEPKSCGGGGSGGGGSGGGGSQVNLLQSGAALVKPGASVKLSCKASGYTFTDYYIHWVKQSHGKSLEWVAYINPDRDYTNYNEKFKSKATLTVDKSTNTAYMELSRLTSEDSATFYCTRRLYDGAYYYSWFAYWGQGTLVTVSSGGGGSGGGGSGGGGSGGGGSDIQMTQSPHSLSASLGETVSIECLASEGISNYLAWYQQKPGKSPQLLIYYGSRLQDGVPSRFSGSGSGTQYSLRITNMQPEDEGVYYCQQGYKYPYTFGAGTKLELK
chain 2: not shown
chain 3: ITCPPPMSVEHADIWVKSYSLYSRERYICNSGFKRKAGTSSLTECVLNKATNVAHWTTPSLKCIR
Turning to B1, the “fold higher concentration of circulating tethered-fusion positive cells against vehicle control and chM1Fab-IL15/sushi” value was over 10 fold.
